Data from PMC11772548, “A Complex Interplay Between Melatonin and RORβ: RORβ is Unlikely a Putative Receptor for Melatonin as Revealed by Biophysical Assays” (Molecular Neurobiology, 2024).

Biological target: ligand-binding domain (LBD) of human RORβ (human, UniProt Q92753-2 250-450, Paper numbering follows the 459-aa isoform (RORβ1; Thr210, Cys262, LBD ending at the AF-2 end, 450), so +11 gives the 470-aa entry: printed 250-450 = 261-461. The paper's modelled LBD is 210-450 (= 22)
Experiment: ITC; 2 mM SRC-1 peptide titrated into 50-100 µM LBD of RORβ; 20 mM Tris-HCl pH 8.6, 2 mM CHAPS, 100 mM NaCl, 5 mM DTT; Malvern MicroCal PEAQ-ITC
Conditions: both partners purified

ligand-binding domain (LBD) of human RORβ, sequence (Q92753 250-450): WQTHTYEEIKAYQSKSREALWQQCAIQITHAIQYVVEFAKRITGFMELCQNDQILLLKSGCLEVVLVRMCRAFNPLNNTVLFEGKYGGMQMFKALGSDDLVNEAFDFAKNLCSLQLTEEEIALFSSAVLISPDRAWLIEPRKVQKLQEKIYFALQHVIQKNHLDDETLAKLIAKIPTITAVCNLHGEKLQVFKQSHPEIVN

B1: SRC-1 co-activator peptide (peptide)
peptide: RHKILHRLLQEGSPS
notes: also called SRC-1 peptide; source: synthetic peptide (GenScript)
Kd: 19.8 µM | dH: -1.1 kcal/mol
